# Experimental data: patent publication US20060008846A1 (RESEARCH DEVELOPMENT FOUNDATION, published 2006)
# Residue numbers refer to the chain shown, from its start. Names may count otherwise.
# B1: activin-A S57A (ligand, human, UniProt P08476 311-426, looked up)
# chain: GLECDGKVNICCKKQFFVSFKDIGWNDWIIAPSGYHANYCEGECPSHIAGTSGSSLAFHSTVINHYRMRGHSPFANLKSCCVPTKLRPMSMLYYDDGQNIIKKDIQNMIVEECGCS
# B2: activin-A F58A/H59A (ligand, human, UniProt P08476 311-426, looked up)
# chain: B1 chain with A57S, F58A, H59A
# B3: activin-A S60A/T61A (ligand, human, UniProt P08476 311-426, looked up)
# chain: B1 chain with A57S, S60A, T61A
# B4: activin-A V62A/I63A (ligand, human, UniProt P08476 311-426, looked up)
# chain: B1 chain with A57S, V62A, I63A
# B5: activin-A H65A/M68A (ligand, human, UniProt P08476 311-426, looked up)
# chain: B1 chain with A57S, H65A, M68A
# B6: activin-A R69A/G70A/H71A (ligand, human, UniProt P08476 311-426, looked up)
# chain: B1 chain with A57S, R69A, G70A, H71A
# B7: activin-A N76A/L77A/K78A/S79A (ligand, human, UniProt P08476 311-426, looked up)
# chain: B1 chain with A57S, N76A, L77A, K78A, S79A
# B8: A/C-1 chimeric activin A/activin C protein (ligand, human, UniProt P08476 311-426, looked up)
# chain: B1 chain with S46L, T51M, S52P, S54I, S55A, L56A, A57S
# B9: A/C-2.1 chimeric activin A/activin C protein (ligand, human, UniProt P08476 311-426, looked up)
# chain: B1 chain with A57S, S60T, T61A, I63L
# B10: activin-A W25A (ligand, human, UniProt P08476 311-426, looked up)
# chain: B1 chain with W25A, A57S
# B11: A/C-2.2 chimeric activin A/activin C protein (ligand, human, UniProt P08476 311-426, looked up)
# chain: B1 chain with A57S, I63L, H65L, Y66L, R67K
# B12: A/C-2.3 chimeric activin A/activin C protein (ligand, human, UniProt P08476 311-426, looked up)
# chain: B1 chain with A57S, Y66L, R67K, M68A, R69N, G70T
# B13: A/C-2.4 chimeric activin A/activin C protein (ligand, human, UniProt P08476 311-426, looked up)
# chain: B1 chain with A57S, M68A, R69N, G70T, H71A, S72A
# B14: activin-A S57P (ligand, human, UniProt P08476 311-426, looked up)
# chain: B1 chain with A57P
# B15: activin-A H59P (ligand, human, UniProt P08476 311-426, looked up)
# chain: B1 chain with A57S, H59P
# B16: activin-A T61P (ligand, human, UniProt P08476 311-426, looked up)
# chain: B1 chain with A57S, T61P
# B17: activin-A V62P (ligand, human, UniProt P08476 311-426, looked up)
# chain: B1 chain with A57S, V62P
# B18: activin-A M91A (ligand, human, UniProt P08476 311-426, looked up)
# chain: B1 chain with A57S, M91A
# B19: activin-A A31Q (ligand, human, UniProt P08476 311-426, looked up)
# chain: B1 chain with A31Q, A57S
# B20: activin-A I105A (ligand, human, UniProt P08476 311-426, looked up)
# chain: B1 chain with A57S, I105A
# B21: activin-A S90A (ligand, human, UniProt P08476 311-426, looked up)
# chain: B1 chain with A57S, S90A
# B22: activin-A L92A (ligand, human, UniProt P08476 311-426, looked up)
# chain: B1 chain with A57S, L92A
# B23: activin-A (M108A), P08476 311-426 (ligand, human, UniProt P08476 311-426, looked up)
# chain: B1 chain with A57S, M108A
# B24: activin-A Y35A (ligand, human, UniProt P08476 311-426, looked up)
# chain: B1 chain with Y35A, A57S
# B25: activin-A P45A/S46A/H47A/I48A (ligand, human, UniProt P08476 311-426, looked up)
# chain: B1 chain with P45A, S46A, H47A, I48A, A57S
# B26: activin-A A49G (ligand, human, UniProt P08476 311-426, looked up)
# chain: B1 chain with A49G, A57S
# B27: activin-A G50A/T51A (ligand, human, UniProt P08476 311-426, looked up)
# chain: B1 chain with G50A, T51A, A57S
# B28: activin-A S52A/G53A/S54A (ligand, human, UniProt P08476 311-426, looked up)
# chain: B1 chain with S52A, G53A, S54A, A57S
# B29: activin-A S55A/L56A (ligand, human, UniProt P08476 311-426, looked up)
# chain: B1 chain with S55A, L56A, A57S
# B30: A/C-2 chimeric activin A/activin C protein (ligand, human, UniProt P08476 311-426, looked up)
# chain: GLECDGKVNICCKKQFFVSFKDIGWNDWIIAPSGYHANYCEGECPSHIAGTSGSSLSFHTAVLNLLKANTAAPFANLKSCCVPTKLRPMSMLYYDDGQNIIKKDIQNMIVEECGCS
# B31: activin-A I63P (ligand, human, UniProt P08476 311-426, looked up)
# chain: B1 chain with A57S, I63P
# B32: activin-A I105E (ligand, human, UniProt P08476 311-426, looked up)
# chain: B1 chain with A57S, I105E
# B33: activin-A M91E (ligand, human, UniProt P08476 311-426, looked up)
# chain: B1 chain with A57S, M91E
# B34: activin-A M108E (ligand, human, UniProt P08476 311-426, looked up)
# chain: B1 chain with A57S, M108E
# B35: activin-A S60P (ligand, human, UniProt P08476 311-426, looked up)
# chain: B1 chain with A57S, S60P
# B36: activin-A/C chimera A/C 46-53 (ligand, UniProt P08476 311-355, looked up)
# chain: B1 chain with S46L, T51M, S52P, A57S
# notes: range 1-45 of the mature chain;range 46-53 of the mature chain;range 54 to C-terminus of the mature chain
# B37: activin-A/C chimera A/C 54-63 (ligand, UniProt P08476 311-363, looked up)
# chain: B1 chain with S54I, S55A, L56A, A57S, S60T, T61A, I63L
# notes: range 1-53 of the mature chain;range 54-63 of the mature chain;range 64 to C-terminus of the mature chain
# B38: activin-A/C chimera A/C 64-69 (ligand, UniProt P08476 311-373, looked up)
# chain: B1 chain with A57S, H65L, Y66L, R67K, M68A, R69N
# notes: range 1-63 of the mature chain;range 64-69 of the mature chain;range 70 to C-terminus of the mature chain
# B39: activin-A/C chimera A/C 70-78 (ligand, UniProt P08476 311-379, looked up)
# chain: B1 chain with A57S, G70T, H71A, S72A, P73G, F74T, A75T, N76G, L77G, K78G
# notes: range 1-69 of the mature chain;range 70-78 of the mature chain;range 79 to C-terminus of the mature chain
# B40: activin-A/C chimera A/C 46-78 (ligand, UniProt P08476 311-355, looked up)
# chain: GLECDGKVNICCKKQFFVSFKDIGWNDWIIAPSGYHANYCEGECPLHIAGMPGIAASFHTAVLNLLKANTAAGTTGGGSCCVPTKLRPMSMLYYDDGQNIIKKDIQNMIVEECGCS
# notes: range 1-45 of the mature chain;range 46-78 of the mature chain;range 79 to C-terminus of the mature chain; also called A/C 46-78 chimera
# Legend:
# [1] = target: T1, ALK4 (activin type I receptor) (UniProt P36896); test: cell-based or functional assay
# T1 sequence (looked up): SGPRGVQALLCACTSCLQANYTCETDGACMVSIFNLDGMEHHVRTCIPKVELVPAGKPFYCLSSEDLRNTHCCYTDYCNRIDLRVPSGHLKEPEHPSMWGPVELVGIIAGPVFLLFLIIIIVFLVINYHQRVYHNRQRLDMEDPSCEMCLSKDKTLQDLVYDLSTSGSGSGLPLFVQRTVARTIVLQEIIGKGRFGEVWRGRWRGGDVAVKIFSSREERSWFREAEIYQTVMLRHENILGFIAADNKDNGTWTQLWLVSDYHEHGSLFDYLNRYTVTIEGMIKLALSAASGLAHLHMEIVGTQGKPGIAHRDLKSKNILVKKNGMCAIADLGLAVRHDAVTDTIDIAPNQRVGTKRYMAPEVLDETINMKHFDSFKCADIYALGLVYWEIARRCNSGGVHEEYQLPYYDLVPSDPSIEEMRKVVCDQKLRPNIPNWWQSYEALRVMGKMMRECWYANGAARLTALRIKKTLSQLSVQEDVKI
# [2] = target: type II activin receptors in 293T cells; test: cell-based or functional assay
# [3] = target: T2, ALK4 (activin type I receptor) (UniProt P36896 24-505, limits assumed); test: cell-based or functional assay
# T2 sequence (looked up): T1 sequence (looked up)
# [4] = target: T3, mouse ActRII transfected into 293T cells (mouse, UniProt P27038 20-513); test: ActRII binding, 293T cells transfected with mouse ActRII
# T3 construct: whole, on cells
# Procedure: After the incubation cells were washed three times with HDB buffer and lysed with 1% SDS solution. Radioactivity in the lysate was determined using a gamma counter.
# Therefore, the inventors contemplate engineering a series of activin-A chimeras, such as activin-A/C chimeras, preferably having a peptide tag such a FLAG tag, in each of […] in the wrist loop and helix (such as A/C 46-53, 54-63, 64-69, 70-78) are replaced. Additionally, a chimera was generated in which the entire wrist region (A/C 46-78) was changed from activin-A to activin-C or some other analogous TGF-β member. In one example, the chimeras were assessed for ActRII binding, activin bioactivity as well as antagonistic properties. […] Maximum activity of A/C 64-69 and 70-78, however, was reduced down to about 20-50% and 60-90%, respectively, when compared to wt activin. […] Additionally, A/C 46-78 decreased the basal and activin induced FSH release from cultured rat anterior pituitary cells in a concentration dependent manner. […] The activin antagonist A/C 46-78 may be useful for the study and modulation of activin dependent processes.
# T3 sequence (P27038 20-513): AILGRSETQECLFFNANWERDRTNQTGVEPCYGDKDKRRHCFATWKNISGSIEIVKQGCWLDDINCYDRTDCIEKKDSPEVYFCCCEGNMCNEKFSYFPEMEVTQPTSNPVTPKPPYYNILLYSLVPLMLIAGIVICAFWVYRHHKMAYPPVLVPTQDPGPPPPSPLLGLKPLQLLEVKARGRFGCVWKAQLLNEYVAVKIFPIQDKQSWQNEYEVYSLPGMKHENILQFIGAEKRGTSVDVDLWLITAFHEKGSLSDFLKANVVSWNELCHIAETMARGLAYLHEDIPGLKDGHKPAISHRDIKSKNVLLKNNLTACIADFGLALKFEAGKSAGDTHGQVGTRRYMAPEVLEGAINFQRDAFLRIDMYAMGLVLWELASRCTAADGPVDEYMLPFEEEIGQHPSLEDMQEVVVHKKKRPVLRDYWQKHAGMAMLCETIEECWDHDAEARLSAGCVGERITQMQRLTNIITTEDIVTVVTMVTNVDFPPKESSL
Binder,% Activin Activity (A3-luciferase assay in 293T cells) (% of wild type activin-A) [1],other results
B1,101,
B2,126,
B3,97,
B4,83,
B5,82,
B6,82,
B7,82,
B8,104,
B9,81,
B10,73,
B11,107,
B12,87,
B13,79,
B14,83,
B15,85,
B16,78,
B17,64,
B18,74,
B19,84,
B20,86,

Binder,% Activin Activity (A3-luciferase assay in 293T cells) (% of wild type activin-A) [1],other results
B21,59,
B22,35,
B23,,activin-A (100 pM) induced luciferase response in 293T cells with increasing amounts of M108A (fold induction) [2]: 23; myostatin (500 pM) induced luciferase response in 293T cells with increasing doses of M108A (fold induction) [2]: 26
B24,101,
B25,91,
B26,82,
B27,83,
B28,99,
B29,101,
B30,,% Activin Activity (A3-luciferase assay in 293T cells) [3]: 17 % of wild type activin-A
B31,,% Activin Activity (A3-luciferase assay in 293T cells) [3]: 19 % of wild type activin-A
B32,,% Activin Activity (A3-luciferase assay in 293T cells) [3]: 13 % of wild type activin-A
B33,,% Activin Activity (A3-luciferase assay in 293T cells) [3]: 3 % of wild type activin-A
B34,,% Activin Activity (A3-luciferase assay in 293T cells) [3]: 3 % of wild type activin-A
B35,,% Activin Activity (A3-luciferase assay in 293T cells) [3]: 17 % of wild type activin-A
B36,,binding result [4]: binds
B37,,binding result [4]: binds
B38,,binding result [4]: binds
B39,,binding result [4]: binds
B40,,binding result [4]: binds
